The target in data set [1] is T1, AtSHMT2 (Arabidopsis thaliana, UniProt Q94C74).
T1 construct: the protein N-truncated at E41; The open reading frames coding for AtSHMT2 41–517 fragment; His6 (N, cleaved yes); made in house; host or cells: E. coli BL21 Gold
T1 sequence (Q94C74 41-517): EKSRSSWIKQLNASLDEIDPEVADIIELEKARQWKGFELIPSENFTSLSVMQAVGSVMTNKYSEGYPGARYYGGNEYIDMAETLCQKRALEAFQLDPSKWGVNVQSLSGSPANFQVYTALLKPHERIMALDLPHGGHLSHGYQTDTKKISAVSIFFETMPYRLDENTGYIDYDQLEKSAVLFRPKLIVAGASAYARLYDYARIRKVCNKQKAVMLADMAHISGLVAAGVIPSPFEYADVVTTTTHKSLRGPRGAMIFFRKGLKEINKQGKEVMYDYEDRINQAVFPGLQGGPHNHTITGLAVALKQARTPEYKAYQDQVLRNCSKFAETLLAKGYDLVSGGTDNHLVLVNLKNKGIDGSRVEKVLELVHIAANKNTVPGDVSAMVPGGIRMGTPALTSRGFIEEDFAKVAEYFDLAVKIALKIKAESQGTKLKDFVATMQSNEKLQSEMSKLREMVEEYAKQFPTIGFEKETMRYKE
The data set can be described thus: Competitive binding assay vs 5-formyl-THF, quinonoid intermediate absorbance. The following applies: AtSHMT2, 20 mM KPi pH 8.0, 30 °C, glycine 10 mM, 5-formyl-THF varied; read-out: Ki (inhibition constant, antifolate binding to the enzyme-glycine complex). From the text:
(§1) In this system, the obtained Ki values refer to binding of the antifolates to the enzyme-glycine complex.
(§2) Secondary plots of slopes as functions of antifolate concentrations were obtained from fitting of inhibition data (Fig. S2). Intercept on the X-axis gives an estimate of the inhibition constant (Ki) related to antifolate binding to the enzyme-glycine complex. Since it is known that the mitochondrial matrix has an alkaline pH (pH 8[68]) as compared to the cytosol (pH 7.3[68]), inhibition measurements were performed in 20 mM KPi buffer at pH 8.0 for AtSHMT2 and pH 7.3 for AtSHMT4 at 30 °C. […] Units of slopes are μM.
(§3) Inhibition assays were performed using 5 μM enzyme solutions. All assays were carried out at 30 °C in 20 mM KPi buffer at either pH 8.0, in the case of AtSHMT2, or pH 7.3 in the case of AtSHMT4. Methotrexate was dissolved in pure DMSO.
(§4) The intermediate develops when both ligands bind to SHMT, forming an enzyme-glycine-folate ternary complex. […] Data were analyzed to obtain estimates of the dissociation constant (Kd) and αKd (in the presence of a saturating concentration of the other ligand) for both ligands, as reported in[31].
(§5) The obtained data were used to produce double reciprocal plots and fitted to linear equations. […] Fitting of data was performed with the software PRISM (GraphPad, La Jolla, CA, USA). All experiments were performed in triplicate using a Hewlett-Packard 8453 diode-array spectrophotometer (Agilent Technologies, Santa Clara, CA).
(§6) Absorbance at 505 nm (AtSHMT2) or 500 nm (AtSHMT4) from the quinonoid intermediate formed
(§7) measured at equilibrium. Right-side charts show double reciprocal plots of data shown in left-side panels ﬁtted to a […]

Data set [2] concerns the target T2, AtSHMT4 (Arabidopsis thaliana, UniProt O23254).
T2 construct: The open reading frames coding for AtSHMT2 41–517 fragment and full-length AtSHMT4 were amplified; His6 (N, cleaved yes); made in house; host or cells: E. coli BL21 Gold
T2 sequence (O23254 1-471): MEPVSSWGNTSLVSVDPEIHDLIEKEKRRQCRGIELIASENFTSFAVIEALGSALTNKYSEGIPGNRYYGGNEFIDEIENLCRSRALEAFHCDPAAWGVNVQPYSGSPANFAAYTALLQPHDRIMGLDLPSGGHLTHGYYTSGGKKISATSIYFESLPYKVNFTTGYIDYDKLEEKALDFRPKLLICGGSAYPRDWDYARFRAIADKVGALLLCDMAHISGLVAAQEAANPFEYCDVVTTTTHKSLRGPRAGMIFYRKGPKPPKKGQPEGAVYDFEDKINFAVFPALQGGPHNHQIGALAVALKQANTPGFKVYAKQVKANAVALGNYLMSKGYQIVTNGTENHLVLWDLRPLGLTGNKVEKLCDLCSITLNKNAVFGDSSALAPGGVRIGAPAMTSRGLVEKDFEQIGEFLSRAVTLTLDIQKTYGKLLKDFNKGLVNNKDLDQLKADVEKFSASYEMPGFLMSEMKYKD
Described as above. The conditions noted are these: AtSHMT4, 20 mM KPi pH 7.3, 30 °C, glycine 10 mM, 5-formyl-THF varied; read-out: Ki (inhibition constant, antifolate binding to the enzyme-glycine complex).
Text: as §1, §2, §3, §4, §5, §6, §7

A further data set deals with hcSHMT. The following applies: cited from earlier work.
On the set-up of data set [3]: method as in PMID 9067281. The conditions noted are these: PTX (or its polyglutamylated forms); cited from earlier work.
Data set [4] has as its target T1, AtSHMT2. The data set can be described thus: SHMT forward reaction (serine + THF), coupled assay, initial velocity. The data set is classed as biochemical. The conditions noted are these: read-out: KM THF; AtSHMT2, pH 6.5, 30 mM L-serine fixed, 30 °C. How it is done:
(§8) Figure 2 Dependence of AtSHMT2 and AtSHMT4 activity on pH. The initial velocity of the SHMT forward reaction was measured at different pH values with AtSHMT2 and AtSHMT4 (0.2 μM) using a fixed concentration of one substrate while varying the concentration of the other substrate. The fixed L-serine concentration was saturating. […] All experimental points are the average ± standard deviation of three independent measurements. […] Reactions were carried out at 30 °C.
(§9) Activities were measured at different pH values (6.0, 7.0, 8.5 and 9.5). For pH 6.0, 7.0 and 8.5, the assays were performed in 20 mM phosphate buffer. Measurements at pH 9.5 were performed in a mixture of 50 mM MES, 50 mM HEPES, and 50 mM CHES and the final pH was adjusted with KOH.

Data set [5] addresses T2, AtSHMT4. The data set is described as above. In kind it is biochemical. The conditions noted are these: read-out: KM THF, 30 °C. How it is done:
as §8, §9

For the next data set, the system named is AtSHMT3. The arrangement: method as in PMID 20518745. The conditions noted are these: read-out: KM for THF; cited from earlier work.
Substrate in data set [6]: N[C@@H](CO)C(=O)O
The data set can be described thus: purified protein, by the assay type. The data set is classed as biochemical, Arabidopsis thaliana. The conditions noted are these: 30 °C.

The mark [7] stands for this setting: other: AtSHMT4, pH 6.5, 30 µM THF fixed, pH 6.5.
Setting [8] is: other: AtSHMT4, pH 7, 30 µM THF fixed, pH 7.0.
Setting [9] is: other: AtSHMT4, pH 8, 50 µM THF fixed, pH 8.0.
[10] abbreviates: other: AtSHMT4, pH 8.5, 80 µM THF fixed, pH 8.5.
[11] abbreviates: other: AtSHMT4, pH 9.5, 100 µM THF fixed, pH 9.5.
[12] abbreviates: other: AtSHMT2, pH 6.5, 180 µM THF fixed, pH 6.5.
Where [13] appears, read: other: AtSHMT2, pH 7, 180 µM THF fixed, pH 7.0.
Where [14] appears, read: other: AtSHMT2, pH 8, 180 µM THF fixed, pH 8.0.
The mark [15] stands for this setting: other: AtSHMT2, pH 8.5, 180 µM THF fixed, pH 8.5.
The mark [16] stands for this setting: other: AtSHMT2, pH 9.5, 180 µM THF fixed, pH 9.5.

Where “and” joins values, the source holds several entries; their conditions need not be identical. Equal entries are not always repeated. Where two headings read alike, the source gives them in different places.

The term Km denotes the concentration of substrate that gives half-maximal velocity. As a reminder, the kcat/Km is the second-order rate constant that governs catalysis at low substrate concentration.

Consider `CN(Cc1cnc2nc(N)nc(N)c2n1)c1ccc(C(=O)N[C@@H](CCC(=O)O)C(=O)O)cc1` [MTX, methotrexate], for which the Ki on AtSHMT2 [1] was 270 µM; on AtSHMT4 [2], 179 µM; at hcSHMT (ref Paiardini et al.[45], read-out: KiMTX (apparent inhibition constant)) it was 201 µM.
As to `Nc1nc2[nH]cc(CCc3ccc(C(=O)N[C@@H](CCC(=O)O)C(=O)O)cc3)c2c(=O)[nH]1` [PTX, pemetrexed], the Ki on AtSHMT2 [1] was 119 µM; on AtSHMT4 [2] it was 95 µM and 95.1 µM; on hcSHMT (ref Daidone et al.[26], read-out: KiPTX (inhibition constant)) it was 19.1 µM. Also, in data set [3], the Intracellular concentration is 10 to 30 µM.
As to tetrahydrofolate [THF], the Km is 83.6 ± 8.1 µM on AtSHMT2 [4]; 7.87 ± 1.62 µM at AtSHMT4 [5] (AtSHMT4, pH 6.5, 30 mM L-serine fixed); 15 ± 1.87 µM at AtSHMT4 [5] (AtSHMT4, pH 7, 30 mM L-serine fixed); 23.8 ± 3.99 µM at AtSHMT4 [5] (AtSHMT4, pH 8, 30 mM L-serine fixed); 33.8 ± 5.63 µM at AtSHMT4 [5] (AtSHMT4, pH 8.5, 30 mM L-serine fixed); 218 µM in the data set with AtSHMT3.

B1: AtSHMT4 (Arabidopsis thaliana) (protein)
chain: T2 sequence (O23254 1-471)
notes: The open reading frames coding for AtSHMT2 41–517 fragment and full-length AtSHMT4 were amplified; His6 (N, cleaved yes); made in house; host or cells: E. coli BL21 Gold
On to B1, for which the Km in data set [6] (setting [7]) turned out to be 2560 ± 260 µM; in data set [6] (setting [8]) it was 540 ± 50 µM; in data set [6] (setting [9]), 300 ± 20 µM; in data set [6] (setting [10]), 240 ± 20 µM; in data set [6] (setting [11]) it was 200 ± 20 µM. For the same molecule, the kcat/Km was determined as 4630 M⁻¹ s⁻¹ in data set [6] (setting [7]); 30000 M⁻¹ s⁻¹ in data set [6] (setting [8]); 57900 M⁻¹ s⁻¹ in data set [6] (setting [9]); 81500 M⁻¹ s⁻¹ in data set [6] (setting [10]); 90800 M⁻¹ s⁻¹ in data set [6] (setting [11]).

B2: AtSHMT2 (Arabidopsis thaliana) (protein)
chain: T1 sequence (Q94C74 41-517)
notes: the protein N-truncated at E41; The open reading frames coding for AtSHMT2 41–517 fragment; His6 (N, cleaved yes); made in house; host or cells: E. coli BL21 Gold
For the molecule B2, the Km in data set [6] (setting [12]) was 11650 ± 2030 µM; in data set [6] (setting [13]) it was 8050 ± 1360 µM; in data set [6] (setting [14]) it was 2860 ± 300 µM; in data set [6] (setting [15]), 1780 ± 220 µM; in data set [6] (setting [16]) it was 710 ± 90 µM. Also, the kcat/Km was 450 M⁻¹ s⁻¹ in data set [6] (setting [12]); 1010 M⁻¹ s⁻¹ in data set [6] (setting [13]); 4530 M⁻¹ s⁻¹ in data set [6] (setting [14]); 11600 M⁻¹ s⁻¹ in data set [6] (setting [15]); 30700 M⁻¹ s⁻¹ in data set [6] (setting [16]).

Values taken from paper PMC6928210 (Scientific Reports, 2019).
